Assay results as given in IntAct's records for PubMed 12732628.

B1: Molybdopterin synthase sulfur carrier subunit (Homo sapiens), O96033 (parent)
chain: MVPLCQVEVLYFAKSAEITGVRSETISVPQEIKALQLWKEIETRHPGLADVRNQIIFAVRQEYVELGDQLLVLQPGDEIAVIPPISGG
partner: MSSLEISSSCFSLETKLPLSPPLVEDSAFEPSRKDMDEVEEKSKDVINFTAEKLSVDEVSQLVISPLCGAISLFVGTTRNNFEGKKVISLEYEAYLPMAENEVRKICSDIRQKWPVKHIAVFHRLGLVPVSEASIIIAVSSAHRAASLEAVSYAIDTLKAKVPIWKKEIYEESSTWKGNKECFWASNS

Variants of: B1
Conditions: with moc2b_human MOCS2, O96007

Row | effect of a mutation on the interaction | Variant
1 | disrupting interaction | MVPLCQFEVLYFAKSAEITGVRSETISVPQEIKALQLWKEIETRHPGLADVRNQIIFAVRQEYVELGDQLLVLQPGDEIAVIPPISGG [V7F]
